Reference: patent publication US20240400675A1 (published 2024)
Numbering of substitutions follows the chain as printed. Names and notes keep the numbering of the source.

Columns and labels:
human CLDN6 [1] = biological target: T1, human CLDN6 (human, UniProt P56747 1-220); assay: flow cytometry on HEK293E cells expressing CLDN6
T1 construct: also called Claudin 6
T1 sequence: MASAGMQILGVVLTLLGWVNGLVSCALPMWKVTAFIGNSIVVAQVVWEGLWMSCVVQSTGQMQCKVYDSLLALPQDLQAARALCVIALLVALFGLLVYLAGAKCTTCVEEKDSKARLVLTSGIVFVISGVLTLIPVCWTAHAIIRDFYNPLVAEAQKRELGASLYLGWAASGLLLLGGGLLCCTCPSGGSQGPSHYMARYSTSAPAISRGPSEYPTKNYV
Description: (§1) The following experiments used to screen CLDN6 binding domains were generally performed as follows. HEK293T or HEK293E cells were respectively stably or transiently transfected to express CLDN6, CLND9, or other targets of interest. 48 hours post transfection, cells were harvested and incubated with dilutions of the indicated test articles for 1 hour at 4° C. […] Binding was then assessed via flow cytometry.

human CLDN6 [2] = biological target: T1, human CLDN6; assay: flow cytometry on HEK293-Trex cells stably expressing the claudin
human CLDN6 [3] = biological target: T1, human CLDN6; assay: flow cytometry on transfected cells
human CLDN9 = biological target: T2, human CLDN9 (human, UniProt O95484 1-217); assay: flow cytometry on transfected HEK293E cells
T2 construct: also called CLND9
T2 sequence: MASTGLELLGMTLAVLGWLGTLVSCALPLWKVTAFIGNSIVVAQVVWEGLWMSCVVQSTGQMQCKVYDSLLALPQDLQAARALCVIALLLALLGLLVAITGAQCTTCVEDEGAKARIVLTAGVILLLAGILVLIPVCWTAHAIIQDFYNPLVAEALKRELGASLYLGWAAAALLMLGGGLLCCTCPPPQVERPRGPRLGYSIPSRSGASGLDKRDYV
Description: as §1

human CLDN6 [4] = biological target: T1, human CLDN6; assay: flow cytometry on HEK293E cells expressing CLDN6 or CLDN9; EC50 on CLDN9 cells divided by EC50 on CLDN6 cells
Description: as §1

B1: XENP37233 (C6-30_H2.91_L1.187), 2+1 Fab2-scFv-Fc bsAb with CD3 High-Int #1 (bispecific antibody)
heavy 1: EVQLVQSGAEVKKPGESLRISCKTSGYTFTEYTMHWVRQMPGKSLEWMGGIDPNNFNTHYNQKFQGHVTISVDKSISTAYLQWSSLKASDTAMYYCARIYYFGRLYFDFWGAGTLVTVSSASTKGPSVFPLAPSSKSTSGGTAALGCLVKDYFPEPVTVSWNSGALTSGVHTFPAVLQSSGLYSLSSVVTVPSSSLGTQTYICNVNHKPSDTKVDKKVEPKSCDKTHTCPPCPAPPVAGPSVFLFPPKPKDTLMISRTPEVTCVVVDVKHEDPEVKFNWYVDGVEVHNAKTKPREEEYNSTYRVVSVLTVLHQDWLNGKEYKCKVSNKALPAPIEKTISKAKGQPREPQVYTLPPSREEMTKNQVSLTCDVSGFYPSDIAVEWESDGQPENNYKTTPPVLDSDGSFFLYSKLTVDKSRWEQGDVFSCSVMHEALHNHYTQKSLSLSPGK
heavy 2: EVQLVQSGAEVKKPGESLRISCKTSGYTFTEYTMHWVRQMPGKSLEWMGGIDPNNFNTHYNQKFQGHVTISVDKSISTAYLQWSSLKASDTAMYYCARIYYFGRLYFDFWGAGTLVTVSSASTKGPSVFPLAPSSKSTSGGTAALGCLVKDYFPEPVTVSWNSGALTSGVHTFPAVLQSSGLYSLSSVVTVPSSSLGTQTYICNVNHKPSNTKVDKKVEPKSCGGGGSGGGGSQAVVTQEPSLTVSPGGTVTLTCGSSTGAVTTSNYANWVQQKPGKSPRGLIGGTNKRAPGVPARFSGSLLGGKAALTISGAQPEDEADYYCALWYSNHWVFGGGTKLTVLGKPGSGKPGSGKPGSGKPGSEVQLVESGGGLVQPGGSLRLSCAASGFTFSTYAMNWVRQAPGKGLEWVGRIRSKANNYATYYADSVKGRFTISRDDSKNTLYLQMNSLRAEDTAVYYCVRHGNFGDSYVSWFAYWGQGTLVTVSSGGGGSGGGGSKTHTCPPCPAPPVAGPSVFLFPPKPKDTLMISRTPEVTCVVVDVKHEDPEVKFNWYVDGVEVHNAKTKPREEQYNSTYRVVSVLTVLHQDWLNGKEYKCKVSNKALPAPIEKTISKAKGQPREPQVYTLPPSREQMTKNQVKLTCLVKGFYPSDIAVEWESNGQPENNYKTTPPVLDSDGSFFLYSKLTVDKSRWQQGNVFSCSVMHEALHNHYTQKSLSLSPGK
light: not shown
notes: copies: 1 + 1 + 2
binding result (human CLDN6 [1]): binds

B2: XENP37227 (C6-30_H1.9_L1.187), 2+1 Fab2-scFv-Fc bsAb with CD3 High-Int #1 (bispecific antibody)
heavy 1: QVQLVQSGAEVKKPGASVKVSCKTSGYTFTEYTMHWVRQAPGQSLEWMGGIDPNNANTHYNQKFQGRVTITVDKSASTAYMELSSLRSEDTAVYYCARIYYFGRLYFDFWGAGTLVTVSSASTKGPSVFPLAPSSKSTSGGTAALGCLVKDYFPEPVTVSWNSGALTSGVHTFPAVLQSSGLYSLSSVVTVPSSSLGTQTYICNVNHKPSDTKVDKKVEPKSCDKTHTCPPCPAPPVAGPSVFLFPPKPKDTLMISRTPEVTCVVVDVKHEDPEVKFNWYVDGVEVHNAKTKPREEEYNSTYRVVSVLTVLHQDWLNGKEYKCKVSNKALPAPIEKTISKAKGQPREPQVYTLPPSREEMTKNQVSLTCDVSGFYPSDIAVEWESDGQPENNYKTTPPVLDSDGSFFLYSKLTVDKSRWEQGDVFSCSVMHEALHNHYTQKSLSLSPGK
heavy 2: QVQLVQSGAEVKKPGASVKVSCKTSGYTFTEYTMHWVRQAPGQSLEWMGGIDPNNANTHYNQKFQGRVTITVDKSASTAYMELSSLRSEDTAVYYCARIYYFGRLYFDFWGAGTLVTVSSASTKGPSVFPLAPSSKSTSGGTAALGCLVKDYFPEPVTVSWNSGALTSGVHTFPAVLQSSGLYSLSSVVTVPSSSLGTQTYICNVNHKPSNTKVDKKVEPKSCGGGGSGGGGSQAVVTQEPSLTVSPGGTVTLTCGSSTGAVTTSNYANWVQQKPGKSPRGLIGGTNKRAPGVPARFSGSLLGGKAALTISGAQPEDEADYYCALWYSNHWVFGGGTKLTVLGKPGSGKPGSGKPGSGKPGSEVQLVESGGGLVQPGGSLRLSCAASGFTFSTYAMNWVRQAPGKGLEWVGRIRSKANNYATYYADSVKGRFTISRDDSKNTLYLQMNSLRAEDTAVYYCVRHGNFGDSYVSWFAYWGQGTLVTVSSGGGGSGGGGSKTHTCPPCPAPPVAGPSVFLFPPKPKDTLMISRTPEVTCVVVDVKHEDPEVKFNWYVDGVEVHNAKTKPREEQYNSTYRVVSVLTVLHQDWLNGKEYKCKVSNKALPAPIEKTISKAKGQPREPQVYTLPPSREQMTKNQVKLTCLVKGFYPSDIAVEWESNGQPENNYKTTPPVLDSDGSFFLYSKLTVDKSRWQQGNVFSCSVMHEALHNHYTQKSLSLSPGK
light: not shown
notes: copies: 1 + 1 + 2
binding result (human CLDN6 [1]): binds

B3: XENP37231 (C6-30_H1.24_L1.187), 2+1 Fab2-scFv-Fc bsAb with CD3 High-Int #1 (bispecific antibody)
heavy 1: B2 heavy 1 with A56G, F102L
heavy 2: B2 heavy 2 with A56G, F102L
light: not shown
notes: copies: 1 + 1 + 2
binding result (human CLDN6 [1]): binds

B4: XENP34221, humanized C6-30 H2L2 bivalent mAb (antibody, human IgG1, kappa, V domains shown)
VH: EVQLVQSGAEVKKPGESLRISCKTSGYTFTEYTMHWVRQMPGKSLEWMGGIDPNNGNTHYNQKFQGHVTISVDKSISTAYLQWSSLKASDTAMYYCARIYYFGRLYFDFWGAGTLVTVSS
VL: DIQMTQSPDSLAVSLGERATINCKASEDIYNRLAWYQQKPGQVPKLLISGATSLETGVPSRFSGSGSGKDYTLTISSLQAEDVAVYYCQQYWSSPLTFGGGTKVEIKR
notes: IgG1 with ablation variant; copies: 2 + 2
binding result (human CLDN6 [2]): binds

B5: XENP34219, humanized C6-30 H1L2 bivalent mAb (antibody, human IgG1, kappa, V domains shown)
VH: QVQLVQSGAEVKKPGASVKVSCKTSGYTFTEYTMHWVRQAPGQSLEWMGGIDPNNGNTHYNQKFQGRVTITVDKSASTAYMELSSLRSEDTAVYYCARIYYFGRLYFDFWGAGTLVTVSS
VL: B4 VL
notes: as for B4
binding result (human CLDN6 [3]): binds

B6: XENP34220, humanized C6-30 H2L1 bivalent mAb (antibody, human IgG1, kappa, V domains shown)
VH: B4 VH
VL: DIQMTQSPSSLSASVGDRVTITCQASEDIYNRLAWYQQKPGKVPKLLISGATSLETGVPSRFSGSGSGKDYTFTISSLQPEDIATYYCQQYWSSPLTFGGGTKVEIKR
notes: IgG1 backbone with ablation variant; copies: 2 + 2
binding result (human CLDN6 [3]): binds

B7: XENP35101 having H2.8_L1 (antibody, human IgG1, kappa, V domains shown)
VH: B4 VH with G56D
VL: B6 VL
notes: Bivalent mAb; also called C6-30 H2.8_L1; copies: 2 + 2
binding result (human CLDN9): binds

B8: XENP35102 having H2.9_L1 (antibody, human IgG1, kappa, V domains shown)
VH: B4 VH with G56A
VL: B6 VL
notes: Bivalent mAb; also called C6-30 H2.9_L1; copies: 2 + 2
binding result (human CLDN9): binds

B9: XENP34218, humanized C6-30 H1L1 bivalent mAb (antibody, human IgG1, kappa, V domains shown)
VH: B5 VH
VL: B6 VL
notes: IgG1 backbone with E233P/L234V/L235A/G236del/S267K ablation variant; also called XENP34218_HIL1
CLDN9/CLDN6 EC50 ratio (human CLDN6 [4]): 23

B10: XENP36972 having H1_L1.187 (antibody, human IgG1, kappa, V domains shown)
VH: B5 VH
VL: B6 VL with S94A
notes: Bivalent mAb; also called C6-30 H1_L1.187; copies: 2 + 2
CLDN9/CLDN6 EC50 ratio (human CLDN6 [4]): 52.6

B11: XENP35093 (having C6-30 H1.9_L1) (antibody, human IgG1, kappa, V domains shown)
VH: B5 VH with G56A
VL: B6 VL
notes: Bivalent mAb; also called G55A; copies: 2 + 2
binding result (human CLDN6 [3]): binds
